Each block holds one molecule with its values, some of them ahead of it.
Key:
[1] = molecular target: bovine adenylyl cyclase AC8, purified, tag-free (bovine) (UniProt E1BQ12)
[2] = molecular target: bovine adenylyl cyclase AC8, purified, tag-free (bovine) (UniProt E1BQ12); remark: listed apart in the source
[3] = molecular target: bovine adenylyl cyclase AC8, purified, tag-free (bovine, UniProt E1BQ12 1-1253); assay: cell-based or functional assay

activation of AC8 adenylyl cyclase activity (cAMP accumulation) by CaM in the absence of CaCl2, EC50 [1]: 86.6 nM
activation of AC8 adenylyl cyclase activity (cAMP accumulation) by CaM in the presence of CaCl2, EC50 [1]: 4.1 nM
Molecule: Calmodulin (from bovine testes, Sigma-Aldrich P1431) (from UniProt P62157 1-149) (natural protein)

inhibition of AC8 adenylyl cyclase activity (cAMP accumulation) by Gβγ, IC50 [2]: 400 nM
Molecule: G protein beta gamma subunit (Gβ1γ2) (from UniProt P62871 1-340; P63212 1-71) (complex)

activation of AC8 adenylyl cyclase activity (cAMP accumulation) by GTPγS-bound Gαs, EC50 [3]: 25.5 nM
B1: bovine G protein αs subunit, GTPγS-activated (natural protein, UniProt P04896-1 1-394, looked up)
chain: MGCLGNSKTEDQRNEEKAQREANKKIEKQLQKDKQVYRATHRLLLLGAGESGKSTIVKQMRILHVNGFNGEGGEEDPQAARSNSDGEKATKVQDIKNNLKEAIETIVAAMSNLVPPVELANPENQFRVDYILSVMNVPDFDFPPEFYEHAKALWEDEGVRACYERSNEYQLIDCAQYFLDKIDVIKQDDYVPSDQDLLRCRVLTSGIFETKFQVDKVNFHMFDVGGQRDERRKWIQCFNDVTAIIFVVASSSYNMVIREDNQTNRLQEALNLFKSIWNNRWLRTISVILFLNKQDLLAEKVLAGKSKIEDYFPEFARYTTPEDATPEPGEDPRVTRAKYFIRDEFLRISTASGDGRHYCYPHFTCAVDTENIRRVFNDCRDIIQRMHLRQYELL

Source: PMC10933263 (EMBO Reports, 2024)
